Test results taken from patent publication US20220340666A1.

Molecular target: endogenous Galectin-9 on CRL-2134 cells (human) (UniProt O00182)
Experiment: cell-based binding assay, flow cytometry on CRL-2134 cells

Sequence of endogenous Galectin-9 on CRL-2134 cells (human) (O00182 whole entry): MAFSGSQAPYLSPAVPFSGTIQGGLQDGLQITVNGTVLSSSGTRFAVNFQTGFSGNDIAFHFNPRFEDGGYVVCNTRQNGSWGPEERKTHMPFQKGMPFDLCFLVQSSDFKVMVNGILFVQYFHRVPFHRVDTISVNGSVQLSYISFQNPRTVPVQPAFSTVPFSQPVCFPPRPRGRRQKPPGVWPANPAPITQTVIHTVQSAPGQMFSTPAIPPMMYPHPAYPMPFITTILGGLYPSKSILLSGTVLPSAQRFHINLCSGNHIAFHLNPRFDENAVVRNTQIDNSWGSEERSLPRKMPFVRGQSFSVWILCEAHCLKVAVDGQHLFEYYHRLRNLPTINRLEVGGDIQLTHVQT

| Kd | Binder |
| --- | --- |
| 0.41 nM | G9.2-17 hIgG1 (antibody, V domains shown) VH: EVQLVESGGGLVQPGGSLRLSCAASGFTVSSSSIHWVRQAPGKGLEWVAYISSSSGYTYYADSVKGRFTISADTSKNTAYLQMNSLRAEDTAVYYCARYWSYPSWWPYRGMDYWGQGTLVTVSS VL: DIQMTQSPSSLSASVGDRVTITCRASQSVSSAVAWYQQKPGKAPKLLIYSASSLYSGVPSRFSGSRSGTDFTLTISSLQPEDFATYYCQQSSTDPITFGQGTKVEIKR |
| 2.91 nM | G9.2-17 mIgG1 (antibody, V domains shown) VH: EVQLVESGGGLVQPGGSLRLSCAASGFTVSSSSIHWVRQAPGKGLEWVAYISSSSGYTYYADSVKGRFTISADTSKNTAYLQMNSLRAEDTAVYYCARYWSYPSWWPYRGMDYWGQGTLVTVSS VL: DIQMTQSPSSLSASVGDRVTITCRASQSVSSAVAWYQQKPGKAPKLLIYSASSLYSGVPSRFSGSRSGTDFTLTISSLQPEDFATYYCQQSSTDPITFGQGTKVEIKR |
